Data taken from patent US20250333441A1, “POLYPEPTIDE INHIBITORS AND USES THEREOF” (Neuracle Science Co., Ltd., priority 2021, published 2025).

Experiments:
[1] = test system: APP/PS1 mice (Alzheimer mouse model); test: Synaptic formation in hippocampal CA1 and CA3 of APP/PS1 mice; format: in vivo; details: 30 mg/kg intravenous, four consecutive weeks; compared to mutant LRRC4B protein fragment
Method: FIGS. 16A, 16B, and 16C show the ability of LRRC4B peptide fragment (amino acid residues 453-576 of SEQ ID NO: 2; “WT”) (i.e., SEQ ID NO: 7) to promote synaptic formation in the hippocampal CA1 of APP/PS1 mice. As further described in Example 8, APP/PS1 mice were treated with the LRRC4B peptide fragment (30 mg/kg; intravenous administration) for four consecutive weeks, and then synaptic formation was assessed by fluorescence microscopy using antibodies against SYP and PSD95. Control animals received no treatment (“Cont”) or the mutant LRRC4B peptide fragment […] (i.e., comprising alanine substitutions at positions 488 and 489 of SEQ ID NO: 2; SEQ ID NO: 16). FIG. 16A provides representative fluorescent photomicrographs. FIGS. 16B and 16C show the SYP and PSD95 intensity, respectively.
FIGS. 17A, 17B, and 17C show the ability of LRRC4B peptide fragment (amino acid residues 453-576 of SEQ ID NO: 2; “WT”; SEQ ID NO: 7) to promote synaptic formation in the hippocampal CA3 of APP/PS1 mice. The animals were treated and analyzed as described in FIGS. 16A-16C. FIG. 17A provides representative fluorescent photomicrographs. FIGS. 17B and 17C show the SYP and PSD95 intensity, respectively.
Additionally, to confirm the above effect on neurite outgrowth in vivo, APP/PS1 mice (Alzheimer mouse model) were used. […] Hong et al., Science 352(6286): 712-716 (May 2016). […]

[2] = target: T1, FAM19A5 (isoform 2) - full-length LRRC4B protein complex (Homo sapiens, UniProt Q7Z5A7); test: Immunofluorescence: dissociation of FAM19A5 from full-length LRRC4B in HEK293 cells; format: cell-based; details: HEK293 cells expressing FAM19A5 isoform 2 and LRRC4B, treated 30 minutes
T1 construct: expressed in transfected cells; host or cells: HEK293
Method: Since LRRC4B protein fragments containing the binding domain described in Example 2 (e.g., LRRC4B (453-576); i.e., construct #11 in Table 6) was able to bind to FAM19A5 protein with high affinity, it was next assessed whether such protein fragments could compete with naturally existing LRRC4B protein for binding to FAM19A5 protein, and thereby, dissociate the FAM19A5-LRRC4 protein family complex. Briefly, HEK293 cells expressing both FAM19A5 isoform 2 and LRRC4B protein were treated (i.e., cultured in vitro) for 30 minutes with either LRRC4B (453-576)-hFc or mutant LRRC4B (453-576)-hFc (includes alanine substitutions at positions 488 and 489 of SEQ ID NO: 2; SEQ ID NO: 16) protein fragments. Then, the cells were immunostained with anti-FAM19A5 (1-65) and anti-LRRC4B antibodies to determine the expression of FAM19A5 and full-length LRRC4B proteins, respectively. The hFc-fused LRRC4B protein fragments were determined using an anti-hIgG antibody. The nuclei were stained with Hoechst 33342.

T1 sequence (Q7Z5A7 1-125 isoform Q7Z5A7-2, one chain of several): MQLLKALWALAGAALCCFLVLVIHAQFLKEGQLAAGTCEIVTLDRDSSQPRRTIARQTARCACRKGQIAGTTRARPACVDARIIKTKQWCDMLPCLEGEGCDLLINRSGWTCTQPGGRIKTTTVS

B1: LRRC4B (453-576): LRRC4B fragment, amino acids 453-576 of SEQ ID NO: 2 (SEQ ID NO: 7); used hFc-fused (protein)
chain: VSAVDPVAAGGTGSGGGGPGGSGGVGGGSGGYTYFTTVTVETLETQPGEEALQPRGTEKEPPGPTTDGVWGGGRPGDAAGPASSSTTAPAPRSSRPTEKAFTVPITDVTENALKDLDDVMKTTK
modifications: human Fc fusion in use
notes: used hFc-fused
SYP and PSD95 immunoreactivities in CA1 and CA3 [1]: increased SYP and PSD95 immunoreactivities
dissociation of FAM19A5 from full-length LRRC4B protein [2]: FAM19A5 was largely dissociated from the full-length LRRC4B protein
